Drawing on publication doi:10.1101/2021.01.13.426456, this text covers Kd for three substances.

Assay [1] deals with Full length zebrafish Cavin4b (zebrafish) (UniProt Q5PQY9). As to the kind of experiment: ITC.
The target of assay [2] is Bin1b SH3 domain (zebrafish). As to the kind of experiment: ITC.

On to Bin1b SH3 domain (domain or fragment), for which, in assay [1], the Kd is 55.9 µM. This counts as double-digit micromolar.
With Cavin4b PRD peptide, the Kd in assay [2] was determined as 61.7 µM.
“Chikungunya virus (CHIKV) proline-rich peptide” yielded a Kd in assay [2] of 0.0889 µM.
